We go through three molecules from paper PMC13423800, “De novo design of potent CRISPR–Cas13 inhibitors” (Nature Chemical Biology, 2024).

Data set [1] concerns the target T1, LbuCas13a (Leptotrichia buccalis, UniProt C7NBY4).
T1 sequence: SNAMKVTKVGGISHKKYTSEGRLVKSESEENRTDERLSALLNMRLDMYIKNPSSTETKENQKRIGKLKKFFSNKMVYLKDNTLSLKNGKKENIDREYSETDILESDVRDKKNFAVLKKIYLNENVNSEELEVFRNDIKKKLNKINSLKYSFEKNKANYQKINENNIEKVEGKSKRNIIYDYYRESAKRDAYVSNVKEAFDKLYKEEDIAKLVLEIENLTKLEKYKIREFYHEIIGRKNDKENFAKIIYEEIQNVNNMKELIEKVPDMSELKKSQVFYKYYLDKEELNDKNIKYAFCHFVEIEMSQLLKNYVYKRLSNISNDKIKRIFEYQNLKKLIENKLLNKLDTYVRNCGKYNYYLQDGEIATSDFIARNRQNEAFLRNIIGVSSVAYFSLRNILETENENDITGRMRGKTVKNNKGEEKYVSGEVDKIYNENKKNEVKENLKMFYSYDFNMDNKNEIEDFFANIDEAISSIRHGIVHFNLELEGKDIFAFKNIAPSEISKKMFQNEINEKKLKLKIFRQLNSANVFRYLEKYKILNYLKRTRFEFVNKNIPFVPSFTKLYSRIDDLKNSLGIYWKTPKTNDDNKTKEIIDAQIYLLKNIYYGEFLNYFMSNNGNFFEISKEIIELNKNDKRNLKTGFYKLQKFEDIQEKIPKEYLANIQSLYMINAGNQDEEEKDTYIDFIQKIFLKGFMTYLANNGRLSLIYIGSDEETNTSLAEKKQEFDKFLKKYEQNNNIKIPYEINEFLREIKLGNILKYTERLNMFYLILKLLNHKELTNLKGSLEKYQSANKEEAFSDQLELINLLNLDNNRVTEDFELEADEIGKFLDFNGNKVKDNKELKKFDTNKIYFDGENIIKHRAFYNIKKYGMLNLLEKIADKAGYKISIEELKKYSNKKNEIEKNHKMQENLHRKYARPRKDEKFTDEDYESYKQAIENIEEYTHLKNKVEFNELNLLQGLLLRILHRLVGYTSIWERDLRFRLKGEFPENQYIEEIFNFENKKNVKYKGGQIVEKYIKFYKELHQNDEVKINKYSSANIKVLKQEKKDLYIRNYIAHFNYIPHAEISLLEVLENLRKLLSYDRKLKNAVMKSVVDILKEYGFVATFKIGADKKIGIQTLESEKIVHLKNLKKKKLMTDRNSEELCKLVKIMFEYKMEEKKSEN
The data set can be described thus: fluorescence polarization; no AIcr (control); 40 nM aRNA, RNP titrated; FP: 1x Cas13a cleavage buffer (composition not in the material), RNP twofold dilutions, 40 nM FAM-aRNA, 2 uM AIcrVIA, 2 h at 37 C. Particulars: protein: recombinant; tags: 6xHis-MBP, removed with TEV (SNA left at the N-terminus); label: 5'-6-FAM on aRNA; guide:target 24 bp; guide 5' repeat single-stranded/hairpin; target overhangs 5' C and 3' CC.

Data set [2] addresses T2, Leptotrichia buccalis (Lbu) CRISPR–Cas13a (Leptotrichia buccalis, UniProt C7NBY4 1-1159).
T2 sequence: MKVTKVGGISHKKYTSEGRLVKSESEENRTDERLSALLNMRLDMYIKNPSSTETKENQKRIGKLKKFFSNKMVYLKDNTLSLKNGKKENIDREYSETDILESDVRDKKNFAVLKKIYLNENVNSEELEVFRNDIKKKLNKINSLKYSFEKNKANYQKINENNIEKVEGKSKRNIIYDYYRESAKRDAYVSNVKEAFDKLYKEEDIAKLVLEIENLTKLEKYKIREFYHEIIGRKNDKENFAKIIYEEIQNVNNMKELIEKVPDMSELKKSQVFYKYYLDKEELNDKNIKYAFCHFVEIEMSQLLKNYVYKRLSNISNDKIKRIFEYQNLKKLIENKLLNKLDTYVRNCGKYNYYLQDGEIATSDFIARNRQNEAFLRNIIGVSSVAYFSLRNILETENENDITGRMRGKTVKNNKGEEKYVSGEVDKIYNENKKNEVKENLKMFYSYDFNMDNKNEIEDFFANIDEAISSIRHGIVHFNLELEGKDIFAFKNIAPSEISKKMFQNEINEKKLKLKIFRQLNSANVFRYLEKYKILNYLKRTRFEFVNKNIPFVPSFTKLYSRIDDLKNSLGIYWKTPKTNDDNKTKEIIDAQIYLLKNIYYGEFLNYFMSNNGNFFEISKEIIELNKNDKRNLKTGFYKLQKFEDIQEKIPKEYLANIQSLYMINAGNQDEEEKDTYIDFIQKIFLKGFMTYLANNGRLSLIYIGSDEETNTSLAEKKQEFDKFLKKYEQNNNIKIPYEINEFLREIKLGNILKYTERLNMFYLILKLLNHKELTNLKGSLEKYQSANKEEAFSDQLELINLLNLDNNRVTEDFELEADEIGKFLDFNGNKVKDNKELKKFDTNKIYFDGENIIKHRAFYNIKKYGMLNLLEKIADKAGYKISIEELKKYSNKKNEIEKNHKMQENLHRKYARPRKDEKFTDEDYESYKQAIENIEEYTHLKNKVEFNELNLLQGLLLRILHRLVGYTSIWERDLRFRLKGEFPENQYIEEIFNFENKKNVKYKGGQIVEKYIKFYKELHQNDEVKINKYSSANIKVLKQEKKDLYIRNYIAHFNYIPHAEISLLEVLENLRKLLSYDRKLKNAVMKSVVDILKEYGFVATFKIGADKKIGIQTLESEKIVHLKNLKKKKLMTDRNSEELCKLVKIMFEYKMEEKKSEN
The data set can be described thus: cell-based or functional assay.

B1: FP crRNA / 5'-FAM aRNA (mixed)
RNA: UAGACCACCCCAAAAAUGAAGGGGACUAAAACUUUCUUUCUUUCCUUUUUCUGCCG
?: CCGGCAGAAAAAGGAAAGAAAGAAACC
modifications: first C of the aRNA is deoxyribose (C*)
Take B1: the binding result in data set [1] is reported as “binds”.

B2: AIcrVIA3 (designed binder)
chain: MAPKKYVVTVTIPVTDADLTVFLVVDIIVYAEKLGGTVTITAVKSENDSYSVTLEDLDKAAEELEKVGGSIVLTVTFDNKEKAEKVAEFAYLKAEEYNLKVDVEVKEEL
Take B2: the “IC50 of inhibition of the LbuCas13a HEPN nuclease (velocity of reporter RNA cleavage by LbuCas13a–crRNA–aRNA against AIcrVIA concentration)” value in data set [2] is ~7 nM.

B3: AIcrVIA2 (designed binder)
chain: MNEKKEKARKEMKEIAEKAIKEIKKDPEKALEIAVKAVEEIGEIANESGDYKSGEENAWKVAEEYAKVTGDDDTAYDLMLAGDMIIDGKDAEEGYEILKEL
As to B3, the “IC50 of inhibition of the LbuCas13a HEPN nuclease (velocity of reporter RNA cleavage by LbuCas13a–crRNA–aRNA against AIcrVIA concentration)” value in data set [2] was ~7 nM.
